Reference: article PMC7523099

Experiments:
[1] = biological target: SARS-CoV-1 RBD-5GS-1TD0 (SARS-CoV-1 | not stated); experiment: SDS-PAGE
[2] = biological target: SARS-CoV-2 RBD-5GS-1TD0 (SARS-CoV-2 | not stated) (UniProt P0DTC2); experiment: SDS-PAGE

Row | Substance | stoichiometry N [1] | stoichiometry N [2]
1 | SARS-CoV-1 RBD-5GS-1TD0 (domain or fragment) | 3 | –
2 | SARS-CoV-2 RBD-5GS-1TD0 (from UniProt P0DTC2 330-532) (domain or fragment) | – | 3
